Test [1] has as its target T1, DNA polymerase III α subunit (Escherichia coli, UniProt P10443 1-1160). Description: single molecule DNA stretching.
In test [2] the target is T1, DNA polymerase III α subunit. As to the kind of experiment: other fluorescence titration.

Experimental findings from article PMC3799427 (Nucleic Acids Research, 2013) are described below.

T1 sequence (P10443 whole entry): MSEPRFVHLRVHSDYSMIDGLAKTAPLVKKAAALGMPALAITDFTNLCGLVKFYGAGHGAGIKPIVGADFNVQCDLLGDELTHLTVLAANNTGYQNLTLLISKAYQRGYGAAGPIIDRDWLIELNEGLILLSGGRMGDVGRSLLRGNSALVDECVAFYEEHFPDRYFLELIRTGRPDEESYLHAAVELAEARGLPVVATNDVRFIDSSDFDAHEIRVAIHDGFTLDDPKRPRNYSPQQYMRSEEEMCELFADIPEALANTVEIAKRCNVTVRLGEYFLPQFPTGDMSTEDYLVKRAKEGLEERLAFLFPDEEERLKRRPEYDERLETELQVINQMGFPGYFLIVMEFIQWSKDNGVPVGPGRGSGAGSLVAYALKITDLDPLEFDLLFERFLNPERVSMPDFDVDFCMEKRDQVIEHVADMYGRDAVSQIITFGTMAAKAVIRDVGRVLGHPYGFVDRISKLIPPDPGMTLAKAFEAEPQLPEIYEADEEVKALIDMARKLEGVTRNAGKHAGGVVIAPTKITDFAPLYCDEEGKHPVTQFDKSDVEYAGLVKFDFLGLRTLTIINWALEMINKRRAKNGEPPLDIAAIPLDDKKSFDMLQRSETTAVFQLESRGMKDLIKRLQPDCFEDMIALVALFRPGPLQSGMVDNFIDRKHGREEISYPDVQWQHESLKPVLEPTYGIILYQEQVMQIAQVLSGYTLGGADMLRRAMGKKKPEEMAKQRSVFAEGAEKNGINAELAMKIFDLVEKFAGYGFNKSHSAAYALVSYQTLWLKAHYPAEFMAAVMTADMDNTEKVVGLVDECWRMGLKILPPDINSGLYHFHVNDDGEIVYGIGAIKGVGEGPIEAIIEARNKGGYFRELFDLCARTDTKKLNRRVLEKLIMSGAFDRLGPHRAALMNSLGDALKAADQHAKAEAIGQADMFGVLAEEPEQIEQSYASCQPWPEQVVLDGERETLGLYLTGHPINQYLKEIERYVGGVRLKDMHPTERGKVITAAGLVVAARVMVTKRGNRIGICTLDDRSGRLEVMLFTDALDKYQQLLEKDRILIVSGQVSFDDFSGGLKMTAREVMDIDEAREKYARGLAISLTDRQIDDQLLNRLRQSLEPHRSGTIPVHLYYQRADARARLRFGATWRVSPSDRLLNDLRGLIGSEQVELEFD

B1: UmuD, wild type (natural protein, Escherichia coli, UniProt P0AG11 1-139, looked up)
chain: MLFIKPADLREIVTFPLFSDLVQCGFPSPAADYVEQRIDLNQLLIQHPSATYFVKASGDSMIDGGISDGDLLIVDSAITASHGDIVIAAVDGEFTVKKLQLRPTVQLIPMNSAYSPITISSEDTLDVFGVVIHVVKAMR
The Kd is the constant that tells how readily two partners part at equilibrium. Low values mean higher affinity, high ones lower affinity. As for B1, the Kd in test [1] is 0.34 ± 0.103 µM.

B2: UmuD D91K-G92K (natural protein, Escherichia coli, UniProt P0AG11 1-139, looked up)
chain: MLFIKPADLREIVTFPLFSDLVQCGFPSPAADYVEQRIDLNQLLIQHPSATYFVKASGDSMIDGGISDGDLLIVDSAITASHGDIVIAAVKKEFTVKKLQLRPTVQLIPMNSAYSPITISSEDTLDVFGVVIHVVKAMR
Molecule B2 showed a Kd in test [2] of 32.5 µM.

B3: UmuD G92K (natural protein, Escherichia coli, UniProt P0AG11 1-139, looked up)
chain: MLFIKPADLREIVTFPLFSDLVQCGFPSPAADYVEQRIDLNQLLIQHPSATYFVKASGDSMIDGGISDGDLLIVDSAITASHGDIVIAAVDKEFTVKKLQLRPTVQLIPMNSAYSPITISSEDTLDVFGVVIHVVKAMR
B3 displayed a Kd in test [2] of 1.3 µM.

B4: UmuD D91K (natural protein, Escherichia coli, UniProt P0AG11 1-139, looked up)
chain: MLFIKPADLREIVTFPLFSDLVQCGFPSPAADYVEQRIDLNQLLIQHPSATYFVKASGDSMIDGGISDGDLLIVDSAITASHGDIVIAAVKGEFTVKKLQLRPTVQLIPMNSAYSPITISSEDTLDVFGVVIHVVKAMR
Molecule B4 gave a dissociation constant Kd in test [2] of 18.1 µM.
